Test results from patent US12068729B2, “Anti-factor XII/XIIa antibodies and uses thereof” (Regeneron Pharmaceuticals, Inc., priority 2018, dated 2024).

T1: human FXIIa (Homo sapiens, UniProt P00748)
T1 construct: Factor XIIa, a beta-globulin plasma serine protease composed of an amino-terminal heavy chain and a carboxy-terminal light chain; purchased Enzyme Research Laboratories 1212a; host or cells: human plasma (said of the same vendor's proteins used as immunogen)
T1 sequence (P00748 20-372 limits assumed): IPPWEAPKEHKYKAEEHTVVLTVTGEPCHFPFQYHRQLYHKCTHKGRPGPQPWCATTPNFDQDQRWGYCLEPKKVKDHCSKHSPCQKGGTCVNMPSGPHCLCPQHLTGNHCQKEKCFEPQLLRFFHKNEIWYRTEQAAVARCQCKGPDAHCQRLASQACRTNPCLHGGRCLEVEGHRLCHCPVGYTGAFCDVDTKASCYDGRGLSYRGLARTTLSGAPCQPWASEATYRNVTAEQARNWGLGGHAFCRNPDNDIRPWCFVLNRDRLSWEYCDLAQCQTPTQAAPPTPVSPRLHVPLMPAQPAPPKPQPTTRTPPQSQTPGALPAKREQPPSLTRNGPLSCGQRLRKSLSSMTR
T1 sequence (P00748 373-615 limits assumed): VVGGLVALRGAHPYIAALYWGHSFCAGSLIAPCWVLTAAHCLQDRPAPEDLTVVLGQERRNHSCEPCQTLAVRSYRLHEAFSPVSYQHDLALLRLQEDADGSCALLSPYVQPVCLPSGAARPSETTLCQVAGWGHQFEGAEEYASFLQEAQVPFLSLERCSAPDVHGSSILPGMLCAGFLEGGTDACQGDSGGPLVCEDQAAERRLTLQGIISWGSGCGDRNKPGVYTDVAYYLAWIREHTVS

B1: mAb26036: fully human anti-FXII/FXIIa monoclonal antibody, HCVR/LCVR SEQ ID NOs: 2/10 (antibody, V domains shown)
VH: QVQLVQSGAEVKKPGASVTVSCKASGYTFTSYYLHWVRQAPGQGLEWMGIINPSGGSTSYAQKFQGRVTMTRDTSTSTVYMELSSLRSEDTAVYYCARGVTTVTTYYHYYNMDVWGQGTTVTVSS
VL: DIQMTQSPSSLSASVGDRVTITCRASQGISNYLAWFQQKPGKAPKSLIYAASSLQSGVPSKFSGSGSGTDFTLTISSLQPEDFATYYCQKYNTYPLTFGGGTKVEIK
B2: mAb26048: fully human anti-FXII/FXIIa monoclonal antibody, HCVR/LCVR SEQ ID NOs: 18/26 (antibody, V domains shown)
VH: EVQLVESGGGLVQPRGSLRLSCVASGFTFSDYGMSWVRQAPGKGLEWVSVIGGAGHGTYYADSVKGRFTISRDNSRNTLYLQMNSLRDEDTAVYYCAKKYYWNYVGGMDVWGRGTTVTVSS
VL: DIQMTQSPSSVSASVGDRVTITCRASQDINNWLAWYQQKPGKAPKLLISTASSLQSGVPSRFSGSGSGTDFTLTISSLQPEDFATYYCQQANSLPFTFGPGTKVDIK
B3: mAb26049: fully human anti-FXII/FXIIa monoclonal antibody, HCVR/LCVR SEQ ID NOs: 34/42 (antibody, V domains shown)
VH: EVQLVESGGDLVQPGGSLRLSCAASGFTFNTYAMHWVRQAPGKGLEYISAIDTKGGSTYYADSVKGRFTISRDNSKNAQYLQMDSLRVEDMAVYYCARGFGLDVWGQGTTVTVSS
VL: DVVMTQSPLSLAVTLGQPASISCRSSQSLGYSDGNTYLNWFQQRPGQSPRRLIYKVSNRDSGVPDRFSGSGSGTDFTLKINRVETVDVGVYYCMQATHWPYTFGQGTKLEIK

These molecules were tested against T1, human FXIIa (assay: Surface plasmon resonance (Biacore 4000) binding kinetics, hFXIIa). Details: 25° C.
Method: Equilibrium dissociation constant (KD) for different FXII reagents binding to purified anti-FXII monoclonal antibodies were determined using a real-time surface plasmon resonance based Biacore 4000 biosensor. All binding studies were performed in 10 mM HEPES, 300 mM NaCl, and 0.05% v/v Surfactant Tween-20, pH 7.4 (HBS-P) running buffer at 25° C. and 37° C. The Biacore CM5 sensor chip surface was first derivatized by amine coupling with the mouse anti-human Fc specific monoclonal antibody (GE Healthcare Cat #BR100839) to capture anti-FXII monoclonal antibodies. Binding studies were performed on human FXII and FXIIa (Enzyme Research Laboratories, Cat #1212 and 1212a, respectively). Different concentrations of hFXII and hFXIIa (50 nM-3.125 nM; 2-fold serial dilution) were first prepared in HBS-P running buffer and were injected over anti-human Fc captured anti-FXII monoclonal antibody surface for 3 minutes at a flow rate of 30 uL/minute, while the dissociation of monoclonal antibody bound FXII reagent was monitored for 5 minutes in HBS-P running buffer. The association rate (ka) and dissociation rate (kd) were determined by fitting the real-time binding sensorgrams to a 1:1 binding model with mass transport limitation using Scrubber 2.0c curve-fitting software. Binding dissociation equilibrium constant (KD) and dissociative half-life (t½) were calculated from the kinetic rates as: […]

| Molecule | Kd [nM] | ka [M⁻¹ s⁻¹] | kd [s⁻¹] | t½ [min] |
| --- | --- | --- | --- | --- |
| B1 | 3.78 | 42800 | 0.000162 | 71.4 |
| B2 | 2.07 | 208000 | 0.00043 | 26.8 |
| B3 | 5.07 | 97600 | 0.000495 | 23.4 |

Same assay, conditions: 37° C.

| Molecule | Kd [nM] | ka [M⁻¹ s⁻¹] | kd [s⁻¹] | t½ [min] |
| --- | --- | --- | --- | --- |
| B1 | 4.74 | 84600 | 0.000401 | 29 |
| B2 | 1.79 | 439000 | 0.000784 | 15 |
| B3 | 6.31 | 244000 | 0.00154 | 7 |

Each molecule was assayed on Intrinsic and Common pathways of the coagulation cascade (assay: Activated Partial Thromboplastin Time (aPTT) in pooled normal human plasma). Details: dose response curves, pooled normal human plasma.
Format: biochemical
Text: (§1) This Example describes the inhibitory activity of selected antibodies, as determined by four functional plasma assays: 1) Activated Partial Thromboplastin Time (aPTT), 2) Prothrombin Time (PT), 3) Thrombin Generation Assay (TGA) triggered by ellagic acid and 4) TGA triggered by Tissue Factor. The aPTT test evaluates all clotting factors of the Intrinsic and Common pathways of the coagulation cascade by measuring time for a clot to form after the addition of calcium and ellagic acid, whereas the PT test evaluates all clotting factors of the Extrinsic and Common pathways of the coagulation cascade after the addition of calcium and Tissue Factor. The TGA triggered by ellagic acid measures the rate and amount of thrombin generated via the Intrinsic and Common pathways whereas TGA triggered by Tissue Factor measures the rate and amount of thrombin generated via the Extrinsic and Common pathways.
The aPTT was determined on Diagnostica Stago STart4 Hemostasis Analyzer in the following manner: A total of 50 ul of pooled normal human plasma was added to a cuvette at 37° C. After 1 min, 5 ul of a 2× serially diluted test article (antibody or small molecule inhibitor) in PBS was added to the cuvette and allowed to incubate for 5 min. Then 50 ul of APPT-XL Ellagic Acid (Thermo Scientific) was added and allowed to incubate for 300 seconds before 50 ul of 20 mM calcium chloride (Thermo Scientific) was added to start the reaction. The measured clot time for the test article concentration was normalized to baseline (no drug) plasma clot time and plotted against log molar concentration of the test article. The results were analyzed using nonlinear regression (4-parameter logistics) with Prism 5 software (GraphPad) to obtain doubling time concentration.

| Molecule | effect on plasma aPTT (in words) |
| --- | --- |
| B1 | prolonged the aPTT |
| B2 | prolonged the aPTT |
| B3 | prolonged the aPTT |

The molecules below were run on thrombin generated via the Intrinsic and Common pathways (assay: Thrombin Generation Assay (TGA) triggered by ellagic acid). Details: Intrinsic Pathway Activation with Ellagic Acid.
Format: biochemical, human
Text: as §1
(§2) The thrombin generation profile was determined in a Thermo Scientific Hemker Thrombinoscope in the following manner: A total of 55 ul of pooled normal human plasma was added to a well of a microplate at 37° C. Then 5 ul of a 2× serially diluted test article (antibody or small molecule inhibitor) in PBS was added to the well of the microplate and allowed to incubate for 30 min. 15 ul of APPT-XL Ellagic Acid (Thermo Scientific) was diluted in MP reagent then added to the well and allowed to incubate for 45 min. Then 15 ul of Fluo Flu Cal substrate (Diagnostica Stago) was added immediately before a continuous 90 min reading of the microplate. The measured real-time thrombin concentration values were plotted against time to yield a thrombogram profile for each concentration of the test article used.

| Molecule | Concentration required for ↑ lag time by 2× [nM] | Concentration required for ↓ endogenous thrombin potential by ½ [nM] | Concentration required for ↓ thrombin peak by ½ [nM] |
| --- | --- | --- | --- |
| B1 | 175 | 250 | 250 |
| B2 | 150 | 250 | 250 |
| B3 | 200 | 250 | 250 |

These molecules were tested on thrombin generated via the Extrinsic and Common pathways (assay: Thrombin Generation Assay (TGA) triggered by Tissue Factor). Details: Extrinsic Pathway Activation with Tissue Factor; dash cells; dose up to 500 nM.
Format: biochemical, human
Text: as §1
as §2, with “Tissue Factor PPP Reagent (Diagnostica Stago)” for “APPT-XL Ellagic Acid (Thermo Scientific)”, “was” for “was diluted in MP reagent then”

| Molecule | Concentration required for ↑ lag time by 2× | Concentration required for ↓ endogenous thrombin potential by ½ | Concentration required for ↓ thrombin peak by ½ |
| --- | --- | --- | --- |
| B1 | — (no effect on thrombin generation with a dose up to 500 nM) | — (no effect on thrombin generation with a dose up to 500 nM) | — (no effect on thrombin generation with a dose up to 500 nM) |
| B2 | — (no effect on thrombin generation with a dose up to 500 nM) | — (no effect on thrombin generation with a dose up to 500 nM) | — (no effect on thrombin generation with a dose up to 500 nM) |
| B3 | — (no effect on thrombin generation with a dose up to 500 nM) | — (no effect on thrombin generation with a dose up to 500 nM) | — (no effect on thrombin generation with a dose up to 500 nM) |

Biological target: T1, human FXIIa
Assay: Surface plasmon resonance (Biacore 4000) binding kinetics, hFXIIa
Details: 25° C.
Remark: another data set of the same source

| Molecule | 100 nM Ag Bound (RU) |
| --- | --- |
| B1 | 89.9 |
| B2 | 267.8 |
| B3 | 162.4 |

Same assay, conditions: 37° C.

| Molecule | 100 nM Ag Bound (RU) |
| --- | --- |
| B1 | 166.52 |
| B2 | 335.6 |
| B3 | 251.5 |
